Data: the supplement of paper PMC10567573

B1: WDR41 (parent)
chain: WTMQAYERNFWDPSPQLDTQQEIK

Variants of: B1
Test: protein stability index of a GFP-peptide fusion (GPS, HEK-293T) (PSI 1-6); higher = more stable
Details: c terminus: a fixed tail appended
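Note: lentivirally expressed fusions sorted by FACS into six bins by GFP to DsRed ratio, PSI derived from sequencing read proportions per bin multiplied by bin number.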

Protein stability index, by site and new letter:
T19: S 2.91; M 2.35; A 2.73; H 2.74; R 2.05; C 2.19; L 2.5; D 2.19; Y 1.62; V 2.35; P 2.21; N 2.96; F 1.55; Q 2.55; I 2; E 2.37; K 2.69; W 2.22
P15: K 2.43; W 1.75; Y 1.81; V 2.19; I 2.15; H 2.56; Q 2.08; R 1.99; N 2.6; T 3.12; L 2.3; C 2.3; D 3.03; F 1.96; A 2.82; S 2.02; M 2.7
Q21: F 1.93; A 2.39; H 1.99; T 2.5; K 2.28; N 2.71; W 1.6; S 3.13; I 1.73; P 2.66; C 2.12; V 2.51; Y 2.61; M 2.93; G 2.62; E 2.56; D 2.1; R 2.84; L 1.92
E22: C 2.55; G 2.34; V 2.36; W 1.88; Q 2.1; L 2.07; H 1.8; D 1.85; A 2.45; N 2.41; R 2.15; M 2.03; I 2.81; P 2.34; S 2.96; T 2.33; K 2.37; F 2.11; Y 2.17
Q20: L 2.19; H 2.86; S 2.07; E 2.35; Y 2.07; F 1.99; P 2.06; N 2.88; R 2.44; G 2.19; M 2.27; V 2.34; K 2.28; C 2.75; T 2.04; D 3.42; A 1.64; I 2.07
F10: D 4.7; Q 4.61; C 3.52; A 3.23; R 3.55; S 3.95; H 4.14; V 3.68; W 2.77; Y 3.38; M 4.03; G 3.25; I 3.58; T 3.89; N 3.7; K 3.72; P 3.65; E 3.92; L 3.95
N9: D 3.69; M 1.45; C 1.94; G 2.64; I 2.04; E 3.29; F 2.12; K 1.94; S 2.46; W 1.59; H 1.6; P 2.71; R 1.63; A 2.08; Y 2.08; Q 1.64; T 2.52; L 1.35
I23: F 2.43; N 3.24; M 2.18; V 2.02; R 2.91; E 3.26; S 3.27; H 2.75; G 3.05; A 2.99; D 3.61; W 2.12; P 2.97; C 2.11; Q 3.15; L 2.91; K 3.93; T 2.83
D18: N 2.17; E 2.7; W 1.83; Y 1.97; R 2.02; H 2.2; G 2.56; Q 2.34; V 2.63; C 1.95; F 2.14; I 2.28; S 2.23; K 2.16; M 2.19; T 2.44; A 2.32; L 2.63; P 2.24
D12: R 3.92; H 2.73; N 3.51; K 2.06; Q 1.37; F 3.8; M 2.93; C 2.25; I 2.15; Y 1.4; G 1.96; S 2.51; P 3.31; V 3.8; E 2.31; L 3.49
E7: L 3.28; M 1.93; N 3.04; S 2.45; Y 2.26; A 2.02; G 2.7; H 2.32; R 2.86; F 2.88; C 1.77; W 2.39; V 2.88; T 2.72; K 2.94; D 3.25; I 1.92; P 2.79
A5: S 2.75; R 3.25; V 2.12; Y 2.18; P 2.49; T 2.57; Q 2.85
Q16: V 2.03; C 2.17; I 2.33; H 2.01; D 2.65; E 2.64; N 2.2; T 2.67; S 1.82; A 2.24; K 2.42; M 1.46; L 2.42; Y 1.68; P 2.4; G 2.83; W 1.4; R 2.14; F 2.5
P13: E 3.17; N 2.29; W 1.76; S 3.46; C 2.31; M 2.34; V 2.04; H 2.33; Q 2.65; T 1.56; A 2.11; Y 2.26; L 3.3; G 2.1; D 3.07; F 1.82; R 3.01; K 3.44; I 2.6
S14: K 2.09; L 2.7; I 2.17; W 2.07; M 2.47; E 3.22; C 2.59; P 3.16; A 3.06; G 3.05; R 2.37; Q 2.76; T 2.89; V 2.58; D 3.26; Y 2.23; H 1.94; F 2.56; N 2.74
R8: N 3.41; K 2.86; G 2.59; S 3.21; W 2.4; Q 3.26; Y 2.52; F 2.54; P 3.77; H 3.01; C 2.59; L 2.42; D 3.9; A 2.52; T 2.95; V 2.57
L17: E 2.9; P 2.9; V 2.75; I 2.25; F 2.94; M 3.2; T 2.31; G 3.22; N 2.8; C 2.58; Q 3.18; K 2.84; S 2.68; Y 2.49; H 3.32; A 2.6; R 3.23; W 2.37; D 3.56
W11: Q 3.93; L 4.43; P 3.97; I 3.91; E 4.57; A 4.26; G 3.94; D 4.47; N 4.21; M 3.58; Y 3.5; K 4.75; T 3.93; V 3.54; R 4.47; F 3.15; H 4.04; C 3.66; S 3.93
Y6: L 2.98; K 3.06; M 3.17; G 2.86; P 2.95; I 2.67; V 2.79; D 3.34; T 2.83; R 3.58; H 1.92; C 2.87; F 2.58; E 3.19; N 2.93; S 2.78; Q 2.83
